Measured values from PMC9332313, “Folding and Binding Mechanisms of the SH2 Domain from Crkl” (Biomolecules, 2022).

What was measured:
[1] = molecular target: dansylated Pax_(112–123) peptide (Dans-GEEEHV-pY-SFPNK); assay: stopped-flow fluorescence displacement kinetics (FRET); complex of 2 µM H60A mutant and 20 µM dansyl-Pax112-123 mixed with excess non-dansylated Pax112-123 (40 μM); 283 K; pH 7.5
[2] = molecular target: dansylated Pax_(112–123) peptide (Dans-GEEEHV-pY-SFPNK); assay: stopped-flow fluorescence displacement kinetics (FRET); complex of 2 µM H60A mutant and 20 µM dansyl-Pax112-123 mixed with excess non-dansylated Pax112-123 (40 μM); 283 K; pH 5.5
[3] = molecular target: dansylated Pax_(112–123) peptide (Dans-GEEEHV-pY-SFPNK); assay: stopped-flow fluorescence displacement kinetics (FRET); complex of 2 µM H60A mutant and 20 µM dansyl-Pax112-123 mixed with excess non-dansylated Pax112-123 (40 μM); 283 K; pH 6.8
His60 = His60 (UniProt position 60, NSRVSHYIINS); assay: kinetics (stopped-flow fluorescence binding and displacement); conditions: 283 K; 0.5 M NaCl plus 50 mM buffer; 50 mM sodium-acetate pH 5.0 and 5.5; 50 mM BisTRIS pH 6.0 and 6.8; 50 mM sodium-HEPES pH 7.5; 50 mM TrisHCl pH 8.0, 8.5 and 9.0; Binding reaction with dansyl-Pax112-123 phosphopeptide. The pKa comes from both association and dissociation rate constants, so no free or bound state is specified.

Row | koff [1] | koff [2] | koff [3] | Substance | pKa (His60)
1 | 237 s⁻¹ | 212 s⁻¹ | 152 s⁻¹ | SH2 domain of Crkl protein (residues 1-111), H60A variant (from UniProt P46109 1-111) (domain or fragment) | 
2 |  |  |  | Crk-like protein (Crkl) SH2 domain (Homo sapiens (inferred; not stated in the article)) | 7.1 ± 0.2
